Test [1] has as its target PP2A scaffold subunit (Homo sapiens) (UniProt P30153). Particulars: cited from earlier work.
For test [2], the target named is GST-tagged methylated PP2A core enzyme (GST-Aα bound to carboxyl-methylated Cα) (human, UniProt P30153 8-589; P67775 1-309, carboxyl-methylated C-terminus (L309, the last residue of PP2Ac)). Briefly: cell-based or functional assay.
Test [3] has as its target T1, PP2A catalytic subunit Cα (1-309) (human, UniProt P67775 1-309).
T1 construct: source: Hi-5 insect cells (baculovirus), purified (Ni-NTA, Source 15Q)
Nature of the test: not stated; Supplementary Fig. 6; TIPRL with PP2Ac or the scaffold subunit alone. Conditions: both partners purified.

Test [4] has as its target T2, PP2A scaffold subunit (Aα) alone, as tested against TIPRL in Supplementary Fig. 6b (human, UniProt P30153 8-589).
T2 construct: PP2A scaffold subunit Aα, human; Aα (8-589) is named for biochemical experiments; source: E. coli BL21(DE3), purified (glutathione resin, Source 15Q)
Described as above. Conditions: both partners purified.

Test [5] deals with T3, GST-tagged unmethylated PP2A core enzyme (GST-Aα bound to Cα) (human, UniProt P30153 8-589; P67775 1-309).
T3 construct: PP2A scaffold subunit Aα, human, residues 8-589; The methods also speak of full-length Aα in pGEX-2T; also called GST-PP2A core enzyme; GST-PP2A-AC dimer; source: GST-Aα: E. coli BL21(DE3), purified (glutathione resin, Source 15Q); Cα: Hi-5 insect cells (baculovirus), purified (Ni-NTA, Source 15Q)
T3 sequence (P30153 8-589, chain 1 of 2): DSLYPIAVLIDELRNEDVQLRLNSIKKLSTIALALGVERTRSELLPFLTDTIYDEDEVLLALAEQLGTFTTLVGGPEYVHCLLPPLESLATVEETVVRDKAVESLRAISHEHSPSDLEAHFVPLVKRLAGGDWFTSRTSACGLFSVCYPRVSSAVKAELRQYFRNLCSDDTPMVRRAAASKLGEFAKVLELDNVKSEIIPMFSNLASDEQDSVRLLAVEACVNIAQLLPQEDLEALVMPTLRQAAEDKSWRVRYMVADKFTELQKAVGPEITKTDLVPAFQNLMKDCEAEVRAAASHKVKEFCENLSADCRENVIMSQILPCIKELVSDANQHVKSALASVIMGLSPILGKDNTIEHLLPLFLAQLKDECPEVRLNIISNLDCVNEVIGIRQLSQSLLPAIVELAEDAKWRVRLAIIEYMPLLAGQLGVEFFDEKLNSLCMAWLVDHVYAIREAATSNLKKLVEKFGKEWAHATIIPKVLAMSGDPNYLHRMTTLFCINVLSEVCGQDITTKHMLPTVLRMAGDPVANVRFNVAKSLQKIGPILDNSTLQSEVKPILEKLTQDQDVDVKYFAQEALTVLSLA
T3 sequence (P67775 whole entry, chain 2 of 2, the tested form may be a part): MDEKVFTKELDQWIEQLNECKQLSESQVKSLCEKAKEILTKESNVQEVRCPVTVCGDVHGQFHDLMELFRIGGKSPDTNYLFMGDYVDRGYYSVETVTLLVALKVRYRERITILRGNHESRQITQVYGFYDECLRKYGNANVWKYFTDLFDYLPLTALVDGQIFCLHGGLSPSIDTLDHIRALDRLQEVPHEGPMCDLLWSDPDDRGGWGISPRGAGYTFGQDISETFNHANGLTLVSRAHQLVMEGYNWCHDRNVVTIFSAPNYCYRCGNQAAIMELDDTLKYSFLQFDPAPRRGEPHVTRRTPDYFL
Nature of the test: BLI + pull-down; BLI: anti-GST sensors loaded with 150 nM GST-PP2A-AC dimer, TIPRL 0-30 μM, 300 s association and 300 s dissociation, 1:1 model; pull-down of titrated TIPRL by GST-tagged core enzyme on GS4B. Particulars: both partners purified.

The target of test [6] is T4, PP2A core enzyme (Aα 8-589 and Cα 1-309) as crystallized with TIPRL (human, UniProt P30153 8-589; P67775 1-309, selenomethionine-labeled).
T4 construct: PP2A scaffold subunit Aα, human, residues 8-589; also called PP2A AC dimer; source: Aα: E. coli BL21(DE3); Cα: Hi-5 insect cells; assembled on glutathione resin, released by on-column thrombin cleavage, purified by ion exchange
T4 sequence (P30153 8-589, chain 1 of 2): as the sequence (P30153 8-589, chain 1 of 2) above
T4 sequence (P67775 whole entry, chain 2 of 2, the tested form may be a part): as the sequence (P67775 whole entry, chain 2 of 2, the tested form may be a part) above
Briefly: crystal structure; PP2A-TIPRL complex, sitting drop, 18 °C, 0.1 M citric acid pH 5.2, 9% PEG 4000, 0.2 M sodium acetate; 3.8 Å; four copies in the asymmetric unit. Conditions: both partners purified.

In test [7] the target is T5, PP2A scaffold subunit Aα (8-589), as in the crystal of the PP2A-TIPRL complex (human, UniProt P30153 8-589, selenomethionine-labeled).
T5 construct: PP2A scaffold subunit Aα, human, residues 8-589; also called PP2A-A; A subunit; source: E. coli BL21(DE3), purified; GST removed by thrombin
T5 sequence (P30153 8-589, one chain of several): as the sequence (P30153 8-589, chain 1 of 2) above
The test is described as above. Particulars: both partners purified.

Test [8] concerns the target T1, PP2A catalytic subunit Cα (1-309). Described as above. Particulars: both partners purified.

T1 sequence (P67775 whole entry): as the sequence (P67775 whole entry, chain 2 of 2, the tested form may be a part) above
Chain of PP2A scaffold subunit (Homo sapiens) (P30153 2-589): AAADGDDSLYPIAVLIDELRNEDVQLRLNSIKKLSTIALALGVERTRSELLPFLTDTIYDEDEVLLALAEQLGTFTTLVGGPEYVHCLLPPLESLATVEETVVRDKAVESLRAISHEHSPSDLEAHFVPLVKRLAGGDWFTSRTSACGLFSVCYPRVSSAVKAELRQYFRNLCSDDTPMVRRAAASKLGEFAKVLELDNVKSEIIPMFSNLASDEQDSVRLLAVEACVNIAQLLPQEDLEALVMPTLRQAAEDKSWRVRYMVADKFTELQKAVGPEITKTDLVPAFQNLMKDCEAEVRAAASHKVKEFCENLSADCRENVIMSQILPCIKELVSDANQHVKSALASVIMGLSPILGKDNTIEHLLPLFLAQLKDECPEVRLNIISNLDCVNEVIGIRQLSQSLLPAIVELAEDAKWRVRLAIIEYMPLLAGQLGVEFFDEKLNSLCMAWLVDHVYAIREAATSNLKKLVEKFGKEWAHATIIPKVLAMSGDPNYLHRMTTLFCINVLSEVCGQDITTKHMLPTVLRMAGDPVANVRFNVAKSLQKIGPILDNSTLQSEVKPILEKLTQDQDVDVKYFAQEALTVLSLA
T2 sequence (P30153 8-589): as the sequence (P30153 8-589, chain 1 of 2) above
Chain of GST-tagged methylated PP2A core enzyme (GST-Aα bound to carboxyl-methylated Cα) (P30153 8-589, chain 1 of 2): as above
Chain of GST-tagged methylated PP2A core enzyme (GST-Aα bound to carboxyl-methylated Cα) (P67775 whole entry, chain 2 of 2): as the sequence (P67775 whole entry, chain 2 of 2, the tested form may be a part) above

Turning to PP2Ac (from UniProt P67775), the Kd (commonly the constant that tells how readily two partners part at equilibrium) in test [1] is 5 nM.

B1: TIPRL (TOR signaling pathway regulator), full length, wild type (natural protein, UniProt Q8BH58 1-271, looked up)
chain: MMIHGFQSSHQDFSFGPWKLTASKTHIMKSADVEKLADELHMPSLPEMMFGDNVLRIQHGSGFGIEFNATDALRCVNNYQGMLKVACAEEWQESRTEGEHSKEVIKPYDWTYTTDYKGTLLGESLKLKVVPTTDHIDTEKLKAREQIKFFEEVLLFEDELHDHGVSSLSVKIRVMPSSFFLLLRFFLRIDGVLIRMNDTRLYHEADKTYMLREYTSRESKIANLMHVPPSLFTEPNEISQYLPIKEAVCEKLVFPERIDPNPVDSQSTPSE
notes: TIPRL, full length, for biochemical experiments; Cloned into pQLinkH; His6-tag removed by TEV protease; also called WT TIPRL; source: E. coli BL21 (DE3), purified (Ni-NTA, Source 15Q, Superdex 200)
In the case of B1, the “fold increase of the IC50 of TIPRL for phosphatase activity upon carboxylmethylation of the PP2A core enzyme” value in test [2] is approximately 30 fold. For the same molecule, the Kd in test [3] was approximately 600 nM; in test [4] it was approximately 10000 nM; in test [5], approximately 310 nM.

B2: mouse TIPRL (12-259) (domain or fragment, UniProt Q8BH58 12-259, looked up)
chain: DFSFGPWKLTASKTHIMKSADVEKLADELHMPSLPEMMFGDNVLRIQHGSGFGIEFNATDALRCVNNYQGMLKVACAEEWQESRTEGEHSKEVIKPYDWTYTTDYKGTLLGESLKLKVVPTTDHIDTEKLKAREQIKFFEEVLLFEDELHDHGVSSLSVKIRVMPSSFFLLLRFFLRIDGVLIRMNDTRLYHEADKTYMLREYTSRESKIANLMHVPPSLFTEPNEISQYLPIKEAVCEKLVFPERID
notes: TIPRL, mouse, residues 12-259; also called native TIPRL (12-259); source: E. coli BL21 (DE3), purified (Ni-NTA, Source 15Q, Superdex 200)
Turning to B2, the binding result in test [6], in test [7] and in test [8] was “binds” each time.

(Values after PMC5741625, “Methylation-regulated decommissioning of multimeric PP2A complexes” (Nature Communications, 2017).)
